Data as given in US20050037339A1.
Where two headings read alike, the source gives them in different places.

Experiments:
[1] = biological target: ErbB2 on cells (SKBR3 high, SK-OV-3 moderate, MCF7 low expression) (human) (UniProt P04626); experiment: cell-based or functional assay
[2] = biological target: ErbB2 on cells (SKBR3 high, SK-OV-3 moderate, MCF7 low expression) (human) (UniProt P04626); experiment: 3.0×10^11 cfu on SKBR3 cells 2 h at 37 °C, stripping buffer wash titered on E. coli TG1
[3] = biological target: ErbB2 on cells (SKBR3 high, SK-OV-3 moderate, MCF7 low expression) (human) (UniProt P04626); experiment: 5.0×10^11 phage on ErbB2 expressing SKBR3 cells at 37 °C, low pH glycine eluate titered on E. coli TG1
[4] = biological target: ErbB2 on cells (SKBR3 high, SK-OV-3 moderate, MCF7 low expression) (human) (UniProt P04626); experiment: FACS on SKBR3 cells, anti-M13 and streptavidin-PE detection
[5] = biological target: ErbB2 on cells (SKBR3 high, SK-OV-3 moderate, MCF7 low expression) (human) (UniProt P04626)
[6] = biological target: ErbB2 on cells (SKBR3 high, SK-OV-3 moderate, MCF7 low expression) (human) (UniProt P04626); remark: listed apart in the source
[7] = biological target: recombinant ErbB2 extracellular domain (UniProt P04626); experiment: SPR (BIAcore)

Sequence of C6.5 diabody phagemid (P69168 19-424): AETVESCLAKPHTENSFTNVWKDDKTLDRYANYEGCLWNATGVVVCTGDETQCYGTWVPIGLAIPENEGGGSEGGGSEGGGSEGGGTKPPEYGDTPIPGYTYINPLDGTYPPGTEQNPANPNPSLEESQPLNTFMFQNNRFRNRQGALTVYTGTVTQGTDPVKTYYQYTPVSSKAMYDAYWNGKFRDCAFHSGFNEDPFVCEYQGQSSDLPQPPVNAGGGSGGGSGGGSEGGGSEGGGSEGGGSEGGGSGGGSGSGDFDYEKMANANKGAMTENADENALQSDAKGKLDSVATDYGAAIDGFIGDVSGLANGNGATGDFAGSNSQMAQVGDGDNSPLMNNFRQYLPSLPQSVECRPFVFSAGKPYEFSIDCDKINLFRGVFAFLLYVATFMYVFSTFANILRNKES
Sequence of anti-botulinum scFv phagemid (clone 3D12) (P69168 19-424): as above
Sequence of F5-phagemid (monovalent) (P69168 19-424): as above
Sequence of C6ML3-9 scFv phagemid (P69168 19-424): as above
Sequence of C6.5 scFv phagemid (P69168 19-424): as above
Sequence of fd-F5 phage (multivalent) (P03661 19-424): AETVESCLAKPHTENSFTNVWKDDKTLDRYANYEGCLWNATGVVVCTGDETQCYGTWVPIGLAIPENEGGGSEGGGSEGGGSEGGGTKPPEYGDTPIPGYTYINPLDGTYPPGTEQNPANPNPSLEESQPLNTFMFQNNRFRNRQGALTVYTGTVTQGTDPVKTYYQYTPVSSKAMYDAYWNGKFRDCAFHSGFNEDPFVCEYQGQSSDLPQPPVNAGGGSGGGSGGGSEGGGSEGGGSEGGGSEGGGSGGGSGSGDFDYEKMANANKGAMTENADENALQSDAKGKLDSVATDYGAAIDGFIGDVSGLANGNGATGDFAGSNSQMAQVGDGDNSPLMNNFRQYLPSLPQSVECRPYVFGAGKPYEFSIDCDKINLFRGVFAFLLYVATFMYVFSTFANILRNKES
Sequence of C6.5 scFv phage (fd) (P03661 19-424): as above

**Q.** Which Intracellular Phage Titer [1] does the source give for “C6.5 diabody phagemid (from UniProt P69168 19-424)” here?
**A.** The Intracellular Phage Titer was 4.5e+07 cfu.

**Q.** And the Lysed cell fraction (titer of internalized phage) [1]?
**A.** Its Lysed cell fraction (titer of internalized phage) is 1.7e+07 phage titer.

**Q.** And the cells with internalized phage (confocal microscopy, SKBR3 cells) [1]?
**A.** The cells with internalized phage (confocal microscopy, SKBR3 cells) was 20%.

**Q.** What about the input titer below which phage could not be recovered from within SKBR3 cells (input phage titer) [1] of the same substance?
**A.** Its input titer below which phage could not be recovered from within SKBR3 cells (input phage titer) is 30000.

**Q.** What about the Cell Surface Phage Titer, 1st Wash [2] of the same substance?
**A.** Its Cell Surface Phage Titer, 1st Wash is 1.8e+08 cfu.

**Q.** And the Cell Surface Phage Titer, 2nd Wash [2]?
**A.** Its Cell Surface Phage Titer, 2nd Wash is 1.2e+07 cfu.

**Q.** What about the Cell Surface Phage Titer, 3rd Wash [2] of the same substance?
**A.** The Cell Surface Phage Titer, 3rd Wash was 1.3e+06 cfu.

**Q.** What about the titer of cell surface bound phage, 1st glycine wash [3] of the same substance?
**A.** Its titer of cell surface bound phage, 1st glycine wash is 1.8e+07 phage titer.

**Q.** What about the titer of cell surface bound phage, 2nd glycine wash [3] of the same substance?
**A.** Its titer of cell surface bound phage, 2nd glycine wash is 2.8e+06 phage titer.

**Q.** Which results are given for C6.5 phage (Example 2) (scFv)?
**A.** Lysed cell fraction (titer of internalized phage) [1]: 6.8e+07 phage titer; titer of cell surface bound phage, 1st glycine wash [3]: 1.2e+07 phage titer; titer of cell surface bound phage, 2nd glycine wash [3]: 5.2e+06 phage titer

**Q.** How did the Intracellular Phage Titer [1] turn out when “C6.5 scFv phage (fd) (from UniProt P03661 19-424)” was run?
**A.** Its Intracellular Phage Titer is 2.2e+08 cfu.

**Q.** What about the input titer below which phage could not be recovered from within SKBR3 cells (input phage titer) [1] of the same substance?
**A.** The input titer below which phage could not be recovered from within SKBR3 cells (input phage titer) was 30000.

**Q.** And the Cell Surface Phage Titer, 1st Wash [2]?
**A.** Its Cell Surface Phage Titer, 1st Wash is 2.3e+08 cfu.

**Q.** What about the Cell Surface Phage Titer, 2nd Wash [2] of the same substance?
**A.** Its Cell Surface Phage Titer, 2nd Wash is 6.2e+07 cfu.

**Q.** And the Cell Surface Phage Titer, 3rd Wash [2]?
**A.** The Cell Surface Phage Titer, 3rd Wash was 5.6e+06 cfu.

**Q.** Which Intracellular Phage Titer [1] does the source give for “C6.5 scFv phagemid (from UniProt P69168 19-424)” here?
**A.** Its Intracellular Phage Titer is 5.2e+06 cfu.

**Q.** And the enrichment of C6.5 scFv phagemid over wild type fd phage in the cell lysate, with trypsinization [1]?
**A.** Its enrichment of C6.5 scFv phagemid over wild type fd phage in the cell lysate, with trypsinization is 209 fold.

**Q.** And the enrichment of C6.5 scFv phagemid over wild type fd phage in the cell lysate, without trypsinization [1]?
**A.** Its enrichment of C6.5 scFv phagemid over wild type fd phage in the cell lysate, without trypsinization is 6.1 fold.

**Q.** And the input titer below which phagemid could not be recovered from within SKBR3 cells (input phage titer) [1]?
**A.** The input titer below which phagemid could not be recovered from within SKBR3 cells (input phage titer) was 300000.

**Q.** And the Cell Surface Phage Titer, 1st Wash [2]?
**A.** Its Cell Surface Phage Titer, 1st Wash is 6e+07 cfu.

**Q.** What about the Cell Surface Phage Titer, 2nd Wash [2] of the same substance?
**A.** Its Cell Surface Phage Titer, 2nd Wash is 9.6e+06 cfu.

**Q.** What about the Cell Surface Phage Titer, 3rd Wash [2] of the same substance?
**A.** The Cell Surface Phage Titer, 3rd Wash was 760000 cfu.

**Q.** C6.5cys scFv conjugated to liposomes was tested. Which Total uptake of scFv-conjugated liposomes by SKBR3 cells [1] did it give?
**A.** The Total uptake of scFv-conjugated liposomes by SKBR3 cells was 3.4.

**Q.** What about the share of the liposome uptake that was internalized (SKBR3 cells) [1] of the same substance?
**A.** Its share of the liposome uptake that was internalized (SKBR3 cells) is 70%.

**Q.** For “C6ML3-9 scFv phagemid (from UniProt P69168 19-424)”, which Intracellular Phage Titer [1] is on record?
**A.** The Intracellular Phage Titer was 2.7e+07 cfu.

**Q.** What about the input titer below which phagemid could not be recovered from within SKBR3 cells (input phage titer) [1] of the same substance?
**A.** The input titer below which phagemid could not be recovered from within SKBR3 cells (input phage titer) was 3e+06.

**Q.** And the Cell Surface Phage Titer, 1st Wash [2]?
**A.** Its Cell Surface Phage Titer, 1st Wash is 2.5e+08 cfu.

**Q.** And the Cell Surface Phage Titer, 2nd Wash [2]?
**A.** The Cell Surface Phage Titer, 2nd Wash was 1.4e+07 cfu.

**Q.** What about the Cell Surface Phage Titer, 3rd Wash [2] of the same substance?
**A.** The Cell Surface Phage Titer, 3rd Wash was 3.2e+06 cfu.

**Q.** “F5-phagemid (monovalent) (from UniProt P69168 19-424) (scFv)” was tested. Which % of GFP positive cells (SKBR3, 48 hours; 0.78 µg reporter plasmid DNA) [1] did it give?
**A.** The % of GFP positive cells (SKBR3, 48 hours; 0.78 µg reporter plasmid DNA) was 0.64%.

**Q.** What about the % of GFP positive cells (SKBR3, 48 hours; 3.1 µg reporter plasmid DNA) [1] of the same substance?
**A.** Its % of GFP positive cells (SKBR3, 48 hours; 3.1 µg reporter plasmid DNA) is 1.44%.

**Q.** What about the % of GFP positive cells (SKBR3, 48 hours; 15 µg reporter plasmid DNA) [1] of the same substance?
**A.** The % of GFP positive cells (SKBR3, 48 hours; 15 µg reporter plasmid DNA) was 3.84%.

**Q.** What about the GFP expressing SKBR3 cells after 48 hrs (FACS) [1] of the same substance?
**A.** The GFP expressing SKBR3 cells after 48 hrs (FACS) was 1.37%.

**Q.** What about the GFP expressing SKBR3 cells in a co-culture of SKBR3 and MCF7 cells (FACS) [1] of the same substance?
**A.** Its GFP expressing SKBR3 cells in a co-culture of SKBR3 and MCF7 cells (FACS) is 1.91%.

**Q.** And the GFP positive SKBR3 cells at the minimal phage concentration [1]?
**A.** Its GFP positive SKBR3 cells at the minimal phage concentration is 0.12%.

**Q.** What about the maximum percentage of GFP positive SKBR3 cells in the time course [1] of the same substance?
**A.** Its maximum percentage of GFP positive SKBR3 cells in the time course is 4.5%.

**Q.** And the lowest phage concentration at which binding could be detected [4]?
**A.** The lowest phage concentration at which binding could be detected was 1e+10 cfu/ml.

**Q.** “anti-botulinum scFv phagemid (clone 3D12) (from UniProt P69168 19-424)” was tested. Which Intracellular Phage Titer [1] did it give?
**A.** The Intracellular Phage Titer was 1.5e+06 cfu.

**Q.** And the Lysed cell fraction (titer of internalized phage) [1]?
**A.** Its Lysed cell fraction (titer of internalized phage) is 600000 phage titer.

**Q.** And the Cell Surface Phage Titer, 1st Wash [5]?
**A.** The Cell Surface Phage Titer, 1st Wash was 2.8e+07 cfu.

**Q.** And the Cell Surface Phage Titer, 2nd Wash [5]?
**A.** The Cell Surface Phage Titer, 2nd Wash was 3.6e+06 cfu.

**Q.** What about the Cell Surface Phage Titer, 3rd Wash [5] of the same substance?
**A.** The Cell Surface Phage Titer, 3rd Wash was 280000 cfu.

**Q.** And the titer of cell surface bound phage, 1st glycine wash [6]?
**A.** The titer of cell surface bound phage, 1st glycine wash was 600000 phage titer.

**Q.** What about the titer of cell surface bound phage, 2nd glycine wash [6] of the same substance?
**A.** The titer of cell surface bound phage, 2nd glycine wash was 100000 phage titer.

**Q.** Which % of GFP positive cells (SKBR3, 48 hours; 1.25 ng reporter plasmid DNA) [1] does the source give for “fd-F5 phage (multivalent) (from UniProt P03661 19-424) (scFv)” here?
**A.** Its % of GFP positive cells (SKBR3, 48 hours; 1.25 ng reporter plasmid DNA) is 0.57%.

**Q.** What about the % of GFP positive cells (SKBR3, 48 hours; 2.25 ng reporter plasmid DNA) [1] of the same substance?
**A.** The % of GFP positive cells (SKBR3, 48 hours; 2.25 ng reporter plasmid DNA) was 0.87%.

**Q.** What about the % of GFP positive cells (SKBR3, 48 hours; 5 ng reporter plasmid DNA) [1] of the same substance?
**A.** Its % of GFP positive cells (SKBR3, 48 hours; 5 ng reporter plasmid DNA) is 1.69%.

**Q.** What about the lowest phage concentration at which binding could be detected [4] of the same substance?
**A.** Its lowest phage concentration at which binding could be detected is 1e+08 cfu/ml.

**Q.** Which Kd [7] does the source give for native anti-ErbB2 F5 scFv here?
**A.** The Kd was 160 nM.
